From the RNAGym collection of RNA variant scans (doi:10.1093/molbev/msab373) come the findings set out here.

To fix the notation:
B1: Azoarcus group I ribozyme (parent)
chain: GUGCCUUGCGCCGGGAAACCACGCAAGGGAUGGUGUCAAAUUCGGCGAAACCUAAGCGCCCGCCCGGGCGUAUGGCAACGCCGAGCCAAGCUUCGGCGCCUGCGCCGAUGAAGGUGUAGAGACUAGACGGCACCCACCUAAGGCAAACGCUAUGGUGAAGGCAUAGUCCAGGGAGUGGCGAAAGUCACACAAACCGG

In the series the parent is B1. The series can be described thus: reverse-splicing fitness (ratio to wild type); higher = more active; in vitro selection; Mg2+ level not given. Put shortly:
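An in vitro group I ribozyme library with randomized positions was T7-transcribed and gel-purified. In triplicate, 10 pmol RNA in EPPS pH 7.5 was reacted with 50 pmoles of a 30-nt RNA substrate for 1 h at 37 °C across several added MgCl2 levels (1–48 mM), then stopped with EDTA. Products were reverse transcribed from a substrate-complementary primer, PCR-amplified and sequenced (HiSeq 4000). Fitness is a variant's read proportion after selection over that before, normalised to wild type.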
In the case of GUGCCUUGCGCCGGGAAACCACGCAAGGGAUGGUGUCAAAUUCGGCGAAACCUAAGCGCCCGCCCGGGCGUAUGGCAACGCCGAGCCAAGCUUCGGCGCCUGCGCCGAUGCAGGUGUAGGGACUAGACGGCACCCACCUAAGGCUAACGGUAUGGUGAAGGCAUAGUCGAGGGAGGGGCGAAAGUCACACAAACCGG [A111C A120G A145U C150G C169G U176G], the reverse-splicing fitness came to 0.00412. On to GUGCCUUGCGCCGGGAAACCACGCAAGGGAUGGUGUCAAAUUCGGCGAAACCUAAGCGCCCGCCCGGGCGUAUGGCAACGCCGAGCCAAGCUUCGGCGCCUGCGCCGAUGCAGGUGUAGGGACUAGACGGCACCCACCUAAGGCUAACGAUAUGGUGAAGGCAUAGUCUAGGGAGCGGCGAAAGUCACACAAACCGG [A111C A120G A145U C150A C169U U176C], for which the reverse-splicing fitness stood at 0.0173. For GUGCCUUGCGCCGGGAAACCACGCAAGGGAUGGUGUCAAAUUCGGCGAAACCUAAGCGCCCGCCCGGGCGUAUGGCAACGCCGAGCCAAGCUUCGGCGCCUGCGCCGAUGCAGGUGUAGGGACUAGACGGCACCCACCUAAGGCUAACGAUAUGGUGAAGGCAUAGUCUAGGGAGGGGCGAAAGUCACACAAACCGG [A111C A120G A145U C150A C169U U176G], the reverse-splicing fitness was 0.0045. The result for GUGCCUUGCGCCGGGAAACCACGCAAGGGAUGGUGUCAAAUUCGGCGAAACCUAAGCGCCCGCCCGGGCGUAUGGCAACGCCGAGCCAAGCUUCGGCGCCUGCGCCGAUGCAGGUGUAGGGACUAGACGGCACCCACCUAAGGCUAACGAUAUGGUGAAGGCAUAGUCUAGGGAGAGGCGAAAGUCACACAAACCGG [A111C A120G A145U C150A C169U U176A] reads 0.0198; that for GUGCCUUGCGCCGGGAAACCACGCAAGGGAUGGUGUCAAAUUCGGCGAAACCUAAGCGCCCGCCCGGGCGUAUGGCAACGCCGAGCCAAGCUUCGGCGCCUGCGCCGAUGCAGGUGUAGGGACUAGACGGCACCCACCUAAGGCUAACGGUAUGGUGAAGGCAUAGUCAAGGGAGUGGCGAAAGUCACACAAACCGG [A111C A120G A145U C150G C169A], 0.0153. The result for GUGCCUUGCGCCGGGAAACCACGCAAGGGAUGGUGUCAAAUUCGGCGAAACCUAAGCGCCCGCCCGGGCGUAUGGCAACGCCGAGCCAAGCUUCGGCGCCUGCGCCGAUGCAGGUGUAGGGACUAGACGGCACCCACCUAAGGCUAACGGUAUGGUGAAGGCAUAGUCGAGGGAGUGGCGAAAGUCACACAAACCGG [A111C A120G A145U C150G C169G] reads 0.0203; that for GUGCCUUGCGCCGGGAAACCACGCAAGGGAUGGUGUCAAAUUCGGCGAAACCUAAGCGCCCGCCCGGGCGUAUGGCAACGCCGAGCCAAGCUUCGGCGCCUGCGCCGAUGCAGGUGUAGGGACUAGACGGCACCCACCUAAGGCUAACGGUAUGGUGAAGGCAUAGUCUAGGGAGUGGCGAAAGUCACACAAACCGG [A111C A120G A145U C150G C169U], 0.0209; that for GUGCCUUGCGCCGGGAAACCACGCAAGGGAUGGUGUCAAAUUCGGCGAAACCUAAGCGCCCGCCCGGGCGUAUGGCAACGCCGAGCCAAGCUUCGGCGCCUGCGCCGAUGCAGGUGUAGGGACUAGACGGCACCCACCUAAGGCUAACGGUAUGGUGAAGGCAUAGUCCAGGGAGAGGCGAAAGUCACACAAACCGG [A111C A120G A145U C150G U176A], 0.00983.

Regarding GUGCCUUGCGCCGGGAAACCACGCAAGGGAUGGUGUCAAAUUCGGCGAAACCUAAGCGCCCGCCCGGGCGUAUGGCAACGCCGAGCCAAGCUUCGGCGCCUGCGCCGAUGCAGGUGUAGGGACUAGACGGCACCCACCUAAGGCUAACGGUAUGGUGAAGGCAUAGUCCAGGGAGCGGCGAAAGUCACACAAACCGG [A111C A120G A145U C150G U176C], the reverse-splicing fitness came out at 0.0169. Consider GUGCCUUGCGCCGGGAAACCACGCAAGGGAUGGUGUCAAAUUCGGCGAAACCUAAGCGCCCGCCCGGGCGUAUGGCAACGCCGAGCCAAGCUUCGGCGCCUGCGCCGAUGCAGGUGUAGGGACUAGACGGCACCCACCUAAGGCUAACGAUAUGGUGAAGGCAUAGUCCAGGGAGAGGCGAAAGUCACACAAACCGG [A111C A120G A145U C150A U176A], for which the reverse-splicing fitness stood at 0.0126. For GUGCCUUGCGCCGGGAAACCACGCAAGGGAUGGUGUCAAAUUCGGCGAAACCUAAGCGCCCGCCCGGGCGUAUGGCAACGCCGAGCCAAGCUUCGGCGCCUGCGCCGAUGCAGGUGUAGGGACUAGACGGCACCCACCUAAGGCUAACGAUAUGGUGAAGGCAUAGUCCAGGGAGCGGCGAAAGUCACACAAACCGG [A111C A120G A145U C150A U176C] the value was 0.0176.

Consider GUGCCUUGCGCCGGGAAACCACGCAAGGGAUGGUGUCAAAUUCGGCGAAACCUAAGCGCCCGCCCGGGCGUAUGGCAACGCCGAGCCAAGCUUCGGCGCCUGCGCCGAUGCAGGUGUAGGGACUAGACGGCACCCACCUAAGGCUAACGAUAUGGUGAAGGCAUAGUCCAGGGAGGGGCGAAAGUCACACAAACCGG [A111C A120G A145U C150A U176G], for which the reverse-splicing fitness is 0.0043. As to GUGCCUUGCGCCGGGAAACCACGCAAGGGAUGGUGUCAAAUUCGGCGAAACCUAAGCGCCCGCCCGGGCGUAUGGCAACGCCGAGCCAAGCUUCGGCGCCUGCGCCGAUGCAGGUGUAGGGACUAGACGGCACCCACCUAAGGCUAACGGUAUGGUGAAGGCAUAGUCAAGGGAGGGGCGAAAGUCACACAAACCGG [A111C A120G A145U C150G C169A U176G], the reverse-splicing fitness was determined as 0.00487. The result for GUGCCUUGCGCCGGGAAACCACGCAAGGGAUGGUGUCAAAUUCGGCGAAACCUAAGCGCCCGCCCGGGCGUAUGGCAACGCCGAGCCAAGCUUCGGCGCCUGCGCCGAUGCAGGUGUAGGGACUAGACGGCACCCACCUAAGGCUAACGGUAUGGUGAAGGCAUAGUCAAGGGAGCGGCGAAAGUCACACAAACCGG [A111C A120G A145U C150G C169A U176C] reads 0.0112; that for GUGCCUUGCGCCGGGAAACCACGCAAGGGAUGGUGUCAAAUUCGGCGAAACCUAAGCGCCCGCCCGGGCGUAUGGCAACGCCGAGCCAAGCUUCGGCGCCUGCGCCGAUGCAGGUGUAGGGACUAGACGGCACCCACCUAAGGCUAACGGUAUGGUGAAGGCAUAGUCAAGGGAGAGGCGAAAGUCACACAAACCGG [A111C A120G A145U C150G C169A U176A], 0.0089.
